Here are results for 2 molecules from patent US20240392013A1 (STELEXIS THERAPEUTICS, published 2024).

Substitutions are numbered along the chain they refer to.

Experiment [1] concerns the target T1, IL1RAP on HEK-Blue IL1β / HEK-Blue IL33 reporter cells (UniProt Q9NPH3 21-570, limits assumed).
T1 sequence (looked up): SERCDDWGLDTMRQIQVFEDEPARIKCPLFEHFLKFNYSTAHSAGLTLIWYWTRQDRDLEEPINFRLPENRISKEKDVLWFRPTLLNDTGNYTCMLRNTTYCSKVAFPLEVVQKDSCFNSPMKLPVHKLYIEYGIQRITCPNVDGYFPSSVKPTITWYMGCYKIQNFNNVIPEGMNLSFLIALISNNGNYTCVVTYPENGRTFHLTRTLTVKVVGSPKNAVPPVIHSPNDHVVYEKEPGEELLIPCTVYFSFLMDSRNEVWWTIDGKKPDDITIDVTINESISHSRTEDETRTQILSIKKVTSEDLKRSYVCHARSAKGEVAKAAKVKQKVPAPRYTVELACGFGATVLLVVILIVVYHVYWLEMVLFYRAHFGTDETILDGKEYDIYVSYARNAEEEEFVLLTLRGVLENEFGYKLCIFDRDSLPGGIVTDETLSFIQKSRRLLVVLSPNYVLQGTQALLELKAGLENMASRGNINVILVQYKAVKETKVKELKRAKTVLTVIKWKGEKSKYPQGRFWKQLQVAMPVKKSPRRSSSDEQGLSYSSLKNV
As to the kind of experiment: cell-based or functional assay.

In experiment [2] the target is T2, recombinant human IL1RAP protein, extracellular domain His-tagged (Sino Biological, Cat #10121-H08H) (human, UniProt Q9NPH3 21-367).
T2 construct: extracellular domain; Bought protein; The Octet analyte is printed as huIL1RAP-His (Sino Biological, lot MB08MA1301) without a catalogue number; also called huIL1RAP-His; hIL1RAP; not shown: His tag
T2 sequence (looked up): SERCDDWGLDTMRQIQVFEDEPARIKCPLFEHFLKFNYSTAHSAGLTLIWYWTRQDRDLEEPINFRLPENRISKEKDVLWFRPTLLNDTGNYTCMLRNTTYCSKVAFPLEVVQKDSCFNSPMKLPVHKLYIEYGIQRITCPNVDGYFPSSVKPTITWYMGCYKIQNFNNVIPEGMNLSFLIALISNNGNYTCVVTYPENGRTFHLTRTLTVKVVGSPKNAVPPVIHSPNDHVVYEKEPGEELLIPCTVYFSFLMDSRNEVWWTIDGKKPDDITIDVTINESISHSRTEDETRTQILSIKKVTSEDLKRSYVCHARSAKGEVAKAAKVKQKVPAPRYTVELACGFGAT
As to the kind of experiment: cell-free ELISA, human IL1RAP coated at 1 µg/ml. On the procedure:
Recombinant human or mouse IL1RAP proteins (Sino Biological, Beijing, China; Cat #10121-H08H and Sino Biological, Cat #52657-M08H respectively) were diluted in PBS, pH 7.4 at concentration of 1 μg/ml, coated on high-binding 384-well clear plates and incubated overnight at 4° C. Following, plates were washed 3× with 0.05% Tween-20 in PBS, pH 7.5 and then blocked with 1% BSA in PBS for 1 hour at room temperature. After 3× washes, wells were incubated with each antibody at the highest concentration of 100 nM followed by seven serial half log dilutions (in 1% BSA and 0.05% Tween-20 in PBS) for 1 hour at room temperature. Plates were then washed 3× and incubated with […] detection antibody (Medna, TX, USA; Cat #D8212, 0.5 μg/ml diluted in 0.02% Tween-20 in PBS). After 5× washes, Supersignal ELISA Pico substrate (Thermofisher, MA, USA; Cat #37069) was applied to wells and chemiluminescent signal was read on Sprectramax L for 200 ms/well. Similarly, detection with specific κ and λ antibodies was conducted to define light chain isotyping.
Background: ELISA stands for enzyme-linked immunosorbent assay.

Experiment [3] addresses T3, recombinant mouse IL1RAP protein (Sino Biological, Cat #52657-M08H) (mouse, UniProt Q61730 21-359).
T3 construct: Bought protein
T3 sequence (looked up): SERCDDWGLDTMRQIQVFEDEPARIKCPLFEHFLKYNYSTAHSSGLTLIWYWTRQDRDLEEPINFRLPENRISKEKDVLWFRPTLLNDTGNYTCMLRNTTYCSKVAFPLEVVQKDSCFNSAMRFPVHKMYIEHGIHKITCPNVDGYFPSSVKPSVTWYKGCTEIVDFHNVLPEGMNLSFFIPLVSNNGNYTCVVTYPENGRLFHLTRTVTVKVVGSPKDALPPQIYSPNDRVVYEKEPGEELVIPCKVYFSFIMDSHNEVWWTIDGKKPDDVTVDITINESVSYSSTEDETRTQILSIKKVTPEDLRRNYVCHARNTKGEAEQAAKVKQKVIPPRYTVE
Put plainly: cell-free ELISA, mouse IL1RAP coated; data not shown. In outline:
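Plates coated overnight at 4 °C with recombinant IL1RAP at 1 μg/ml in PBS pH 7.4, then blocked with 1% BSA. Antibodies incubated 1 h at room temperature from 100 nM in seven half-log dilutions. Bound antibody detected with anti-His HRP and chemiluminescence.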

Experiment [4] deals with T4, IL1RAP-Fc protein (Sino Biological, Cat #10121-H02H), recombinant human IL1RAP extracellular domain Fc-tagged (human, UniProt Q9NPH3 21-367).
T4 construct: extracellular domain; not shown: Fc tag
T4 sequence (looked up): T2 sequence (looked up)
As to the kind of experiment: cell-free competition ELISA: IL1RAP-Fc coated, mAb titrated, blocks binding of premixed IL1R1-His/IL1β complex. On the procedure: High-binding 96-well plates were coated with IL1RAP-Fc protein (Sino Biological, Cat #10121-H02H) at concentration of 4 µg/ml and incubated overnight at 4° C. After 3× washes with 0.05% Tween-20 in PBS, pH 7.5, plates were blocked with 1% BSA in PBS for 1 hour at room temperature. Following, wells were incubated with each antibody at concentration of 50 nM for 1 hour at room temperature. […] IL1R1/IL1β complex was preincubated in assay buffer (1% BSA in PBS, pH 7.5) for 20 min at room temperature. After 3× washes, plates were incubated with anti-His HRP detection antibody (Medna, Cat #D8212, […]) for 1 hour at room temperature. Following 5× washes, SuperPico chemiluminescent substrate was applied to wells and signal was read on Spectramax M5.

B1: STLX2012 (antibody, V domains shown)
VH: QVQLLQSGAEVKKPGSSVKVSCKASGGTFSIYAIDWVRQAPGQGLEWMGGIIPIFGTANSAQKFQGRVTITADKSTSTAYMELSSLRSEDTAVYYCARNGATSDAFDMWGQGTMVTVSS
VL: EIVLTQSPGTLSLSPGERATLSCRASLSVSSNYLAWFQQRPGQAPRLLIHGVSRRATGIPDRFSGSGSGTDFTLTISRLEPEDFAVYYCQQYGSSPLTFGGGTKVEIK
notes: Purified from hybridoma of immunized Alivamab mice; intact IgG; captured on anti-mouse IgG Fc sensors in Octet; kappa light chain; also called 74804_12A21B
The EC50 is the concentration needed to bring the measured effect to its halfway point. By IC50 is commonly meant the midpoint of a concentration-inhibition curve. Consider B1, for which, in experiment [1], the “IC50, HEK-BlueIL1β NFκB Reporter Assay” value was 1.31e-09 M (implied; unit not printed) and the “Max % Inhibition at 200 nM, HEK-BlueIL1β NFκB Reporter Assay” value amounted to 100%. Also, the EC50 in experiment [2] is 0.985 nM. Besides, in experiment [3], the binding result was “no binding (tested: 100 nM)”. The IC50 in experiment [4] came to 0.824 nM.

B2: STLX2043 (antibody, V domains shown)
VH: B1 VH with A58E, K63N, V68I, S77N, M108I, S118F
VL: B1 VL with H50Y
notes: Purified from hybridoma of immunized Alivamab mice; intact IgG; captured on anti-mouse IgG Fc sensors in Octet; kappa light chain; also called 74804_43F04A
On to B2, for which, in experiment [1], the “IC50, HEK-BlueIL1β NFκB Reporter Assay” value is 2.29e-09 M (implied; unit not printed) and the “Max % Inhibition at 200 nM, HEK-BlueIL1β NFκB Reporter Assay” value was determined as 99%. Further, in experiment [2], the EC50 is 1.04 nM. Moreover, in experiment [3], the binding result is recorded as “no binding (tested: 100 nM)”. Moreover, the IC50 in experiment [4] turned out to be 0.804 nM.
